# Assay results published in patent US9028810B2, “Composition for inducing migration of neural stem cells containing periostin as effective ingredient” (Ajou University Industry—Academic Cooperations Foundatin, priority 2010, dated 2015).
# B1: periostin (protein)
# chain: NNHYDKILAHSRIRGRDQGPNVCALQQILGTKKKYFSTCKNWYKKSICGQKTTVLYECCPGYMRMEGMKGCPAVLPIDHVYGTLGIVGATTTQRYSDASKLREEIEGKGSFTYFAPSNEAWDNLDSDIRRGLESNVNVELLNALHSHMINKRMLTKDLKNGMIIPSMYNNLGLFINHYPNGVVTVNCARIIHGNQIATNGVVHVIDRVLTQIGTSIQDFIEAEDDLSSFRAAAITSDILEALGRDGHFTLFAPTNEAFEKLPRGVLERIMGDKVASEALMKYHILNTLQCSESIMGGAVFETLEGNTIEIGCDGDSITVNGIKMVNKKDIVTNNGVIHLIDQVLIPDSAKQVIELAGKQQTTFTDLVAQLGLASALRPDGEYTLLAPVNNAFSDDTLSMDQRLLKLILQNHILKVKVGLNELYNGQILETIGGKQLRVFVYRTAVCIENSCMEKGSKQGRNGAIHIFREIIKPAEKSLHEKLKQDKRFSTFLSLLEAADLKELLTQPGDWTLFVPTNDAFKGMTSEEKEILIRDKNALQNIILYHLTPGVFIGKGFEPGVTNILKTTQGSKIFLKEVNDTLLVNELKSKESDIMTTNGVIHVVDKLLYPADTPVGNDQLLEILNKLIKYIQIKFVRGSTFKEIPVTVYKPIIKKYTKIIDGVPVEITEKETREERIITGPEIKYTRISTGGGETEETLKKLLQEEVTKVTKFIEGGDGHLFEDEEIKRLLQGDTPVRKLQANKKVQGSRRRLREGRSQ
# notes: induces migration of neural stem cells
# Legend:
# [1] = system: HB1.F3 human neural stem cell line; assay: Boyden chamber migration assay, HB1.F3 neural stem cells; type: cell-based; conditions: for increase in ability to induce the migration of neural stem cells compared to not treated: Boyden chamber
# Procedure: (§1) In order to examine the effect of periostin on the migration of neural stem cells, a Boyden chamber assay was performed using two human neural stem cell lines (HB1.F3 and HB1.F5), thereby determining whether human neural stem cells migrated in response to periostin in vitro. For controls, VEGF (vascular endothelial growth factor) was used as a positive control, and FBS-DMEM medium was used as a negative control.
# (§2) Specifically, cultured neural stem cells were detached with 0.05% trypsin, washed with DMEM medium, and then re-suspended in DMEM medium, after which 5×10^4 cells seeded into an upper chambers (Costar Transwell) in 200 μl of 10% FBS-containing DMEM medium. After one day, a lower chamber was treated with various concentrations of periostin or VEGF. The periostin was used at concentrations of 5, 10 and 20 μg/ml, and the VEGF was used at concentrations of 5, 10 and 20 ng/ml. 10% FBS-DMEM medium was used as a negative control. After 12 hours, in order to determine the number of cells that migrated from the upper chamber through a 8-μm porous polycarbonate membrane to the lower portion of the membrane in response to the stimulation of the lower chamber, the migrated neural stem cells were stained with hematoxylin and then counted.
# (§3) After one day, a lower chamber was treated with 10 μg/ml of periostin, and after 4 hours, 8 hours, 12 hours and 24 hours, the migrated cells were stained with H&E (hematoxylin & eosin), counted and photographed (Olympus BX51, Japan).
# [2] = system: DCX and ERK in neural stem cells; assay: Transwell membrane immunostaining of ERK and DCX in migrated cells; type: cell-based, human; conditions: periostin 10 μg/ml, 12 hours; for cell migration: VEGF 10 ng/ml; for location of DCX in migrated cells: with or without inhibitor
# Procedure: To analyze the ERK and DCX affection of migrated cells, transwell membrane immunostaining was performed using ERK and DCX antibodies (Cell signaling tech., Danver, Mass.).
# Cultured neural stem cells were detached with 0.05% trypsin, washed with DMEM medium and re-suspended in DMEM medium, after which 5×10^4 neural stem cells were inoculated into an upper chamber (Costar Transwell) in 200 μl of 10% FBS-containing DMEM medium. After one day, a lower chamber was treated with each of VEGF (10 ng/ml), periostin (10 μg/ml) and periostin+inhibitor. After 12 hours, the changes in locations of DCX and ERK in the cells that migrated from the upper chamber through the 8-μm porous polycarbonate membrane to the lower portion of the membrane in response to the stimulation of the lower chamber were examined.
# Next, the membrane was washed with PBS, blocked twice with a solution of 5% goat serum and 0.5% triton X-100 in PBS for 30 minutes, and then washed with a solution of 0.5% BSA (bovine serum albumin) in PBS for 15 minutes. After this, the membrane was incubated with a 1:500 dilution of goat polyclonal human DCX antibody and a 1:1000 dilution of rabbit polyclonal human ERK antibody at 4° C. overnight, and then washed twice with PBS for 15 minutes each time. Next, the membrane was incubated with biotin-conjugated anti-rabbit secondary antibody at room temperature for 1 hour and washed trice with PBS, after which […] was detected by staining the membrane using an avidin-biotin kit (Vector, Calif.) and a diaminbenzidin peroxidase (DAB) kit (Vector, Calif.).
# neural stem cells = assay: In vitro migration assay using ERK pathway and CDK5 pathway inhibitors; type: cell-based, human; conditions: 12 hours
# Excerpt: It has been reported that, in the development of the central nervous system, neural stem cells migrate from the subventricular zone to cortex through radial glial cells using the ERK (extracellular signal regulated kinase) and CDK5 signaling pathways, and in the neuronal migration, DCX participated in nucleus translocation, neucleokinesis (Niethammer et al., 2000).
# Cultured neural stem cells were detached with 0.05% trypsin, washed with DMEM medium and re-suspended in DMEM medium, after which 5×10^4 cells were inoculated into an upper chamber (Costar Transwell) in 200 μl of 10% FBS-containing DMEM medium.
# After 12 hours, in order to determine the number of cells that migrated from the upper chamber through a 8-μm porous polycarbonate membrane to the lower portion of the membrane in response to the stimulation of the lower chamber, the migrated neural stem cells were stained with hematoxylin & eosin and counted.
# [3] = system: HB1.F5 human neural stem cell line; assay: Boyden chamber migration assay, HB1.F5 neural stem cells; type: cell-based
# Procedure: as §1
# as §2, with “The periostin was used at concentrations of 5, 10 and 20 μg/ml, and the VEGF was used at concentrations of 5, 10 and 20 ng/ml. 10% FBS-DMEM medium was used as a negative control.” left out
# as §3
# [4] = system: PI3K/AKT signaling pathway (PI3K-AKT-mTOR-CDK5-Nudel1, PAK1); assay: Western blotting of FAK / PI3K-AKT signaling pathway after periostin treatment; type: cell-based, human
# Procedure: The FAK signaling pathway is linked to kinases as its downstream pathways and transduces signals. With respect to cell migration, the PI3K/AKT signaling pathway (PI3K-AKT-mTOR-CDK5-Nudel1, PAK1) is frequently used as the downstream pathway of FAK, and thus the following experiment was performed in order to determine the kinase activation pathway.
# First, neural stem cells treated with periostin were washed with PBS and lysed with PMSF and a protease inhibitor in RIPA buffer (0.5% sodiumdeoxycholate, 0.1% sodiumdodecyl sulfate, 1% NP-40, PBS). Protein concentration was determined by a Bio-Rad-DC protein assay (Bio-Rad, Hercules, Calif., US). The samples were adjusted to the same protein concentration, after 30 μg of each protein was separated on SDS-PAGE gel. Then, protein samples were transferred to an immobilon-P membrane (Millipore Corp., MA, US). For protein detection, the membrane was incubated in TBS-T 5% skim milk at room temperature for 30 minutes and washed three times with TBS-T for 15 minutes each time. Then, the membrane was incubated with primary antibodies of FAK, pFAK, PAK and pPAK (1:1000 dilution; Epitomics) in 5% BSA-TBS-T overnight at 4° C. Then, the membrane was washed three times with TBS-T for 15 minutes each time. Then, the membrane was incubated with secondary anti-rabbit antibody (1:2000 dilution; Zymed, Calif., USA) at room temperature for 1 hour. The membrane was washed three times with TBS-T, after which the antibody binding protein was added to an ECL Western blotting detection solution (Amersham Pharmacia Biotechnology, buckinghamahire, UK) for 1 minute and exposed to Kodak X-ray firm for detection. The Western blotting analysis was performed at various time points between 0 and 12 hours after treatment with periostin.
# [5] = neural stem cells, Western blotting 0-12 hours
molecule,measurement,setting,value
"vascular endothelial growth factor [VEGF, reference compound]",increase in ability to induce the migration of neural stem cells compared to not treated,"[1]; HB1.F3 cells, 12 hours",25%
same,concentration at which ability of VEGF to induce migration was the highest,"[1]; tested 5, 10 and 20 ng/ml, 12 hours",5 ng/mL
same,cell migration,[2],induced cell migration
COc1cccc(-c2cc(=O)c3ccccc3o2)c1N [PD98059],inhibition of migration of neural stem cells induced by periostin,neural stem cells; 20 nM inhibitor with periostin in lower chamber,40%
same,migration of neural stem cells in control group not treated with periostin,neural stem cells; 20 nM inhibitor,inhibited
"CC[C@H](CO)Nc1nc(NCc2ccccc2)c2ncn(C(C)C)c2n1 [roscovitine, reference compound]",location of DCX in migrated cells,[2],the concentration of DCX around the nuclei was inhibited
B1,migration of neural stem cells over time,"[1]; HB1.F3, 10 μg/ml periostin, 4, 8, 12 and 24 hours",increased with time
same,increase in induction of migration relative to that by VEGF,[1]; HB1.F3 cells,about 4 times
same,increase in ability to induce the migration of neural stem cells compared to not treated,"[1]; HB1.F3 cells, 12 hours",about 100%
same,concentration at which ability of periostin to induce migration was the highest,"[1]; tested 5, 10 and 20 μg/ml, 12 hours",10 µg/mL
same,migration of neural stem cells over time,"[3]; HB1.F5, 10 μg/ml periostin, 4, 8, 12 and 24 hours",increased with time
same,migration of neural stem cells upon treatment,"[3]; HB1.F5 cells, 12 hours",increased upon treatment with periostin
same,time for which Nudel1 activation was maintained,[4]; activated when PAK1 activation decreased,12 h
same,time after treatment at which AKT and mTOR were activated,[4]; [5],1 h
same,time after treatment at which PAK1 started to be activated,[4]; [5],1 h
same,time after treatment from which FAK was highly activated,[4]; [5],30 min
same,time up to which CDK5 activation was maintained,[4]; [5],12 h
same,time up to which PAK1 activation was maintained,[4]; [5],6 h
same,cell migration,[2],induced cell migration
same,location of DCX in migrated cells,[2],DCX was concentrated around the nuclei
